Amyloid nucleation score data for 132 substances are collected here from the supplement of paper PMC12042874.

The nature of the data set: amyloid nucleation score (Sup35N fusion, yeast selection) (log enrichment); library NNK3; higher = more nucleation; inactive = no reads after selection. The method in brief: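 Using DiMSum, nucleation scores were taken as the log enrichment of output over input reads, centred on the mode score of non-aggregating sequences. The input and output reads came from Illumina sequencing of plasmid inserts, with sequences under 100 input reads excluded. The yeast were psi-negative, expressed Sup35N fused to peptides of 20 random codons, were induced with 100 μM copper sulfate for 24 hours, and were grown 7 days at 30°C on medium lacking adenine and uracil.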

± gives the uncertainty stated by the source.

As to VSHNSCGQTAESLNNFKTWS, the amyloid nucleation score entry is “inactive”.

With YASSCDVKLMQSSPLAYEVD, the amyloid nucleation score result is “inactive”.

Turning to YIGIHLTSFRSTSSYYDRVL, the amyloid nucleation score entry is “inactive”.

Regarding STVSYGVGHQNM, the amyloid nucleation score result is “inactive”.

LTNRADE: the amyloid nucleation score result was “inactive”.

On to NMNCCLKMSVYLYRLLVHM, for which the amyloid nucleation score result was “inactive”.

As to GGMHRAYMESVSDVYLRKWW, the amyloid nucleation score stood at 0.308 ± 0.21.

For LDWDFGHDRVRFPERHT, the amyloid nucleation score entry is “inactive”.

On to GQSLLFRISLISCV, for which the amyloid nucleation score was found to be 0.199 ± 0.23.

For the substance VNELSFSTSF, the amyloid nucleation score result is “inactive”.

Turning to TYVIFCYTVSHDDSHRTLYN, the amyloid nucleation score came out at 2.19 ± 0.084.

The substance RFRSRS had an amyloid nucleation score of -0.02 ± 1.1.

As for YYNDSPAFHLRVR, the amyloid nucleation score result was “inactive”.

Consider VIHEDMVLTGF, for which the amyloid nucleation score entry was “inactive”.

Regarding VVLCLFFLLDIFSTGKVYIK, the amyloid nucleation score result is “inactive”.

Consider CRWEVCVVLFLMNCDKNGSC, for which the amyloid nucleation score entry is “inactive”.

With NLPVF, the amyloid nucleation score result is “inactive”.

On to GSSDNGFFCSLNMN, for which the amyloid nucleation score entry was “inactive”.

Take SGTSFISTKFSISLSIWLTA: the amyloid nucleation score result is “inactive”.

On to TIFLSSRGVILYTVSCYKFV, for which the amyloid nucleation score result is “inactive”.

Turning to RSLLGGSKAVYTWDWQPAII, the amyloid nucleation score result was “inactive”.

In turn, RRTWGSMYTKVLSISFLGPG gave an amyloid nucleation score of 1.48 ± 0.1.

In the case of FGSLRCFGWLAWSICVNMYY, the amyloid nucleation score entry was “inactive”.

For the substance RMSLNFNSQPRSLVMGNKYS, the amyloid nucleation score entry was “inactive”.

On to GSLCFGLDSSPSTKIYLYDS, for which the amyloid nucleation score entry is “inactive”.

As to RSVVLLAMMSGYRDISIFRT, the amyloid nucleation score entry is “inactive”.

Regarding TFIFDFAAFMNMVNGFSVLG, the amyloid nucleation score is 2.23 ± 0.088.

For the substance SSSDCGNMNTTPRWAGGIGA, the amyloid nucleation score result is “inactive”.

On to CVCPDNDSPCDLGWVRRGNR, for which the amyloid nucleation score entry is “inactive”.

Regarding RDGTYRWSDLKTICLIRVSW, the amyloid nucleation score result was “inactive”.

As for SFSRPVHSWAGHY, the amyloid nucleation score entry was “inactive”.

As to KSGRSCYIFVYMWQLTVYSG, the amyloid nucleation score entry is “inactive”.

Consider TYYNHIRLVYLIGAKRWEEL, for which the amyloid nucleation score result is “inactive”.

Substance GLEAPTCPEVFNIGIFSYYH had an amyloid nucleation score of 1.45 ± 0.068.

With TMHKGLVVMF, the amyloid nucleation score entry is “inactive”.

Regarding SGHSAFGKKGLRGM, the amyloid nucleation score result is “inactive”.

Turning to MWPNITLFFSWRTEVLLYLI, the amyloid nucleation score result is “inactive”.

Consider IYLDFNASWLACNKLICLRN, for which the amyloid nucleation score stood at 1.01 ± 0.13.

ENTTMVGHMGYSLMFSYK: the amyloid nucleation score turned out to be 1.25 ± 0.12.

For CDSLHNDAVYTSLGAWANHP, the amyloid nucleation score entry is “inactive”.

With IAAQSRRVGRCDIASLQLLE, the amyloid nucleation score result is “inactive”.

In the case of FGVSSP, the amyloid nucleation score result is “inactive”.

For the substance APYNFKDYCISGIWSGYIMF, the amyloid nucleation score entry was “inactive”.

FRMASS: the amyloid nucleation score result was “inactive”.

In the case of VLCHQCWCRKIWPMN, the amyloid nucleation score entry was “inactive”.

For STQNGYRQNEFSRSRMMAPD, the amyloid nucleation score result is “inactive”.

With HQVNVLWQVYILAFSLTSRH, the amyloid nucleation score result is “inactive”.

With MSSPAPFWSVNSVLAIKNLF, the amyloid nucleation score entry is “inactive”.

On to VFNLLYVGFHVDSIGVGCVI, for which the amyloid nucleation score was determined as 1.97 ± 0.096.

In the case of IKSPLDFFNVYVMVLGNWQI, the amyloid nucleation score result was “inactive”.

On to CGIMPLSHGIDLMFVRVTPG, for which the amyloid nucleation score result is “inactive”.

Regarding WNESAGGFRYFPEDAKCDRA, the amyloid nucleation score entry was “inactive”.

YFINKMILIDPL: the amyloid nucleation score entry was “inactive”.

On to IGRTCMCLYSAVVFIRHGTT, for which the amyloid nucleation score result was “inactive”.

For the substance PVISMHIVVLCGKQKKTMSP, the amyloid nucleation score was 0.594 ± 0.23.

For the substance THLSVEFS, the amyloid nucleation score result was “inactive”.

Take HSCMCKSLNASLMVDVRLPR: the amyloid nucleation score entry is “inactive”.

In the case of GRIQPCISRAAGPDAGVMGL, the amyloid nucleation score entry is “inactive”.

With YQVHWFSNYTTAWMNYVSTV, the amyloid nucleation score result was “inactive”.

TMNLCS: the amyloid nucleation score result was “inactive”.

As to MNWFELFAHCLLKQFQRTLQ, the amyloid nucleation score result is “inactive”.

As for INITLWWVTVEFNMSARVQI, the amyloid nucleation score entry is “inactive”.

With LNSFQHGY, the amyloid nucleation score entry is “inactive”.

In turn, ASLPVLPSNPDKSEGAKGHE registered an amyloid nucleation score of -0.681 ± 1.2.

Substance APLSNFALHIPEELRLESSF displayed an amyloid nucleation score of 0.176 ± 0.77.

As to MKLWFNTARLDMKVSKTVYS, the amyloid nucleation score entry is “inactive”.

PCFLTNEDFYMKFTRN: the amyloid nucleation score entry was “inactive”.

Take FADVGTEFSCQEVNMKTHPS: the amyloid nucleation score result was “inactive”.

In the case of WLCCNKTETPQSTRRWQEDD, the amyloid nucleation score entry is “inactive”.

As to ATRSLINQQCCRNYASKVLN, the amyloid nucleation score result was “inactive”.

Regarding RCQATWWNIIFFAIGDCDLL, the amyloid nucleation score result is “inactive”.

As for RMYPHE, the amyloid nucleation score entry is “inactive”.

PDDCVGRSD: the amyloid nucleation score result is “inactive”.

Regarding LVYRMMGSWVGPIRVYFNML, the amyloid nucleation score result was “inactive”.

For the substance SVILCFSV, the amyloid nucleation score result is “inactive”.

Regarding DDLYMFMLIVRMLISQIKRV, the amyloid nucleation score result is “inactive”.

The substance AVLSLCINGIVALKGDSGCC gave an amyloid nucleation score of 0.478 ± 0.21.

Consider WNKGPQTQ, for which the amyloid nucleation score entry is “inactive”.

Turning to WFMRFTLSLVTGLVNGSAWS, the amyloid nucleation score result is “inactive”.

Take VLTLIFFYFRISCICPFLL: the amyloid nucleation score entry was “inactive”.

GYYLLTVCGDWCSVSVHSGF displayed an amyloid nucleation score of 2.13 ± 0.078.

As for SKLFVSVSTTIYFEEPSPA, the amyloid nucleation score entry was “inactive”.

For the substance YPRPLFVRNLDVFHWLYTAV, the amyloid nucleation score entry was “inactive”.

As to QNRLQTSFMVGQRGNTLVTN, the amyloid nucleation score result is “inactive”.

As for YSSQLILTYDTRL, the amyloid nucleation score result is “inactive”.

For the substance LPLLTYSSVSVRPLTSW, the amyloid nucleation score result is “inactive”.

Consider FYIFNWGFFGIKWYLIWNEI, for which the amyloid nucleation score entry is “inactive”.

NSFIVVIYYRVRSYRYTD: the amyloid nucleation score entry was “inactive”.

The substance LSWDVYSRHFG came in with an amyloid nucleation score of 2.31 ± 0.076.

Consider DSKGIFYFFGLVSLY, for which the amyloid nucleation score entry is “inactive”.

Take VSLTGWSR: the amyloid nucleation score result was “inactive”.

For LGFSVYSLA, the amyloid nucleation score result was “inactive”.

Turning to ISVAWWGCSTAYRRCKD, the amyloid nucleation score came out at 1.14 ± 0.12.

TRISMSENKVVKREVVATRR: the amyloid nucleation score result was “inactive”.

As to VTQSQRKASFMVCSYSTITR, the amyloid nucleation score entry was “inactive”.

On to SHNRCVEWFKWIF, for which the amyloid nucleation score was 0.885 ± 0.09.

Turning to NSNFFL, the amyloid nucleation score result is “inactive”.

Turning to NLGGAPVL, the amyloid nucleation score result is “inactive”.

FELRGTLGG gave an amyloid nucleation score of 0.026 ± 0.37.

On to VLCGLARVKEVIASRRWECG, for which the amyloid nucleation score entry is “inactive”.

The substance PQRWLSPSYSRIVRM yielded an amyloid nucleation score of 1.39 ± 0.14.

Consider FKRYY, for which the amyloid nucleation score result was “inactive”.

GGLQTERFLWRC came in with an amyloid nucleation score of 0.13 ± 0.63.

As to PVLPQGLRVLYDSVSVTSHL, the amyloid nucleation score entry is “inactive”.

With GSFSCWYCEVVNVV, the amyloid nucleation score result is “inactive”.

On to SFFPIPIWCD, for which the amyloid nucleation score entry is “inactive”.

In the case of YRRAREWGNDDFLNG, the amyloid nucleation score came out at 0.785 ± 0.12.

As to SFFLDILRVWYYNVPNVPAR, the amyloid nucleation score entry was “inactive”.

NERFERMKRKSVQLPLYVVM displayed an amyloid nucleation score of -0.009 ± 0.53.

For the substance VKRVKMLAYPRHFLLMMSGK, the amyloid nucleation score entry was “inactive”.

LLMGFWIWFINGVCNVRTDS: the amyloid nucleation score entry was “inactive”.

MRSWRMRGSERFAHSLRGYL: the amyloid nucleation score entry was “inactive”.

On to ESFPEFVEVGICR, for which the amyloid nucleation score result is “inactive”.

On to LGIIH, for which the amyloid nucleation score result was “inactive”.

In the case of AIKYICSFSSVSVMR, the amyloid nucleation score result was “inactive”.

For the substance AAYGELL, the amyloid nucleation score result is “inactive”.

Substance PRVIHWSLALNSSHCNFVFF returned an amyloid nucleation score of 2.67 ± 0.073.

As for CVVCCG, the amyloid nucleation score result was “inactive”.

In the case of RCSDYHMR, the amyloid nucleation score entry was “inactive”.

Regarding SNCRNQFRERVLIAGVLWVV, the amyloid nucleation score result is “inactive”.

Regarding NLRSISF, the amyloid nucleation score result was “inactive”.

CMHGKGHSTFINNKDPVKVR: the amyloid nucleation score entry was “inactive”.

With RQLTLSRITNLSLK, the amyloid nucleation score result is “inactive”.

Turning to PTHILPYLVD, the amyloid nucleation score entry was “inactive”.

IKLVIANCNYMMYVEMV: the amyloid nucleation score entry is “inactive”.

For the substance ILCAFTRVWCYTNGPYESGR, the amyloid nucleation score was found to be 2.72 ± 0.053.

In the case of PTAFWGFGF, the amyloid nucleation score entry is “inactive”.

With GCHLFHWFIFAYCYHYEGTN, the amyloid nucleation score was 1.91 ± 0.09.

For KVGSKVLEIFINTHYNWYCR, the amyloid nucleation score was 0.145 ± 0.53.

In the case of VRNWTDD, the amyloid nucleation score result was “inactive”.

In the case of RLDGSMSGCFSTFWNWNIVR, the amyloid nucleation score result was “inactive”.

Take EMSAMRCILLMRVDPICSLS: the amyloid nucleation score result was “inactive”.
